Measured values published in patent US20180017572A1 (Hoffmann-La Roche, published 2018).

Biological target: T1, complement factor C1q (UniProt P02745 23-245; P02746 28-253; P02747 29-245)
T1 construct: also called Clq; recombinant complement factor C1q
Experiment: flow cytometry: BT-474 cells with 10 µg/mL antibody, then 10 µg/mL C1q, detected with PE-labeled anti-C1q antibody
Method: About 3×10⁵ BT-474 cells were incubated with 10 μg/mL of indicated antibody on ice in RPMI 1640 supplemented with 10% FCS. After 30 min. incubation on ice 10 μg/mL C1q (Sigma Aldrich, Cat. No. C1740) was added. The incubation was continued thereafter for an additionally 20 min. on ice. After washing the cells were resuspended in 200 μL medium and counterstained with a PE-labeled anti-C1q antibody (Cedarlane, Cat. No. CL7611PE-SP). After an incubation time of 30 min. on ice cells were washed twice and analyzed on a FACS Canto

T1 sequence (P02745 23-245 limits assumed, chain 1 of 3): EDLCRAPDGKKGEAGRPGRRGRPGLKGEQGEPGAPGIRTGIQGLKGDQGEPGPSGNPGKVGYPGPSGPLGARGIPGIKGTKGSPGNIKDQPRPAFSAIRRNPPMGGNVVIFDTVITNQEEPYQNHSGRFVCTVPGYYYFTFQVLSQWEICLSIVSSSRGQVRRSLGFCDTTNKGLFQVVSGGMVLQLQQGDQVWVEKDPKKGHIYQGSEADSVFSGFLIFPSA
T1 sequence (P02746 28-253 limits assumed, chain 2 of 3): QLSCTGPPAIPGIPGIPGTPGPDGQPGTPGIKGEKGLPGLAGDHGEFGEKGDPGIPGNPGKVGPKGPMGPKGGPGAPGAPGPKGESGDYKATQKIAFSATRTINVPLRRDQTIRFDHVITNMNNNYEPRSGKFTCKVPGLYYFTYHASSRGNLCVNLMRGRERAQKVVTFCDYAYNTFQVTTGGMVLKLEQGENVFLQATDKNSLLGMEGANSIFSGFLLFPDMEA
T1 sequence (P02747 29-245 limits assumed, chain 3 of 3): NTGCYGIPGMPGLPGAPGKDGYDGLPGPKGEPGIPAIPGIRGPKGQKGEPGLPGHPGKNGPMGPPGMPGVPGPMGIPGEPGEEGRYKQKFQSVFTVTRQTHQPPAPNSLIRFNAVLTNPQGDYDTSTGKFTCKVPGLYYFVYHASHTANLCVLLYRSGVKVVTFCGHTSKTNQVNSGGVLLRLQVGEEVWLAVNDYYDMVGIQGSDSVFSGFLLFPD

Binder	PE-signal (geomean)
bispecific anti-HER2 antibody, common light chain (bispecific antibody, human IgG1, kappa, Knob-into-hole bispecific antibody with a common light chain) light: DIQMTQSPSSLSASVGDRVTITCKASQDVSTAVAWYQQKPGKAPKLLIYSASFRYTGVPSRFSGSRSGTDFTLTISSLQPEDFATYYCQQHYTTPPTFGQGTKVEIKRTVAAPSVFIFPPSDEQLKSGTASVVCLLNNFYPREAKVQWKVDNALQSGNSQESVTEQDSKDSTYSLSSTLTLSKADYEKHKVYACEVTHQGLSSPVTKSFNRGEC heavy 1: not shown heavy 2: not shown	1440 geomean PE-signal
bispecific anti-HER2 antibody, common light chain, glycoengineered (bispecific antibody, human IgG1, kappa, The glycan change is not described) light: DIQMTQSPSSLSASVGDRVTITCKASQDVSTAVAWYQQKPGKAPKLLIYSASFRYTGVPSRFSGSRSGTDFTLTISSLQPEDFATYYCQQHYTTPPTFGQGTKVEIKRTVAAPSVFIFPPSDEQLKSGTASVVCLLNNFYPREAKVQWKVDNALQSGNSQESVTEQDSKDSTYSLSSTLTLSKADYEKHKVYACEVTHQGLSSPVTKSFNRGEC heavy 1: not shown heavy 2: not shown	1040 geomean PE-signal
bispecific anti-HER2 antibody, CrossMab format (bispecific antibody, human IgG1, kappa, CrossMab format with four different chains) heavy 1: not shown heavy 2: not shown light 1: DIQLTQPPSVSVAPGQTARITCGASQDVSTAVAWYQQKPGQAPVLVVYSASFLYSGIPSRFSGSRSGTDFTLTISRVEAGDEADYYCQQHYTTPPTFGTGTKVTVLRTVAAPSVFIFPPSDEQLKSGTASVVCLLNNFYPREAKVQWKVDNALQSGNSQESVTEQDSKDSTYSLSSTLTLSKADYEKHKVYACEVTHQGLSSPVTKSFNRGEC light 2: DIQMTQSPSSLSASVGDRVTITCKASQDVSIGVAWYQQKPGKAPKLLIYSASYRYTGVPSRFSGSGSGTDFTLTISSLQPEDFATYYCQQYYIYPYTFGQGTKVEIKSSASTKGPSVFPLAPSSKSTSGGTAALGCLVKDYFPEPVTVSWNSGALTSGVHTFPAVLQSSGLYSLSSVVTVPSSSLGTQTYICNVNHKPSNTKVDKKVEPKSC	489 geomean PE-signal
